From publication PMC8749958 (Science translational medicine, 2021)

Molecular target: T1, recombinant human CD93 protein (R&D Systems) (human, UniProt Q9NPY3 24-580)
T1 sequence (looked up): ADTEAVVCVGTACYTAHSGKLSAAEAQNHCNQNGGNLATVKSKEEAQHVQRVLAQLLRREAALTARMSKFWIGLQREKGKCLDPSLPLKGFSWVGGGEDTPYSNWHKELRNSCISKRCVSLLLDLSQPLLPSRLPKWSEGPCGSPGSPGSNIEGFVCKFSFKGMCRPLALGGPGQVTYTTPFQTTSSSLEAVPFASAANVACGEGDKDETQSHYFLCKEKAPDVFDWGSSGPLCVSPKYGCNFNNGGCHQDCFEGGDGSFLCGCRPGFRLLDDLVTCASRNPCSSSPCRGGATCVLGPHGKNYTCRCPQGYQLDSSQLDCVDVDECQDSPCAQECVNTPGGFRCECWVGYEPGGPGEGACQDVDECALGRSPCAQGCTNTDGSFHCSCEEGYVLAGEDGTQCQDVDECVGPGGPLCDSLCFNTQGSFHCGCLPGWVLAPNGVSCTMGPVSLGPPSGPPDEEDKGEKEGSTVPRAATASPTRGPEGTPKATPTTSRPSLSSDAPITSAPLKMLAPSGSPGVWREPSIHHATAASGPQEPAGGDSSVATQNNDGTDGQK
Test: MST

- Kd: 53.1 ± 20.2 nM
B1: IGFBP7 protein (R&D Systems), labelled for microscale thermophoresis (ligand, human, UniProt Q16270 27-282, looked up)
chain: SSSDTCGPCEPASCPPLPPLGCLLGETRDACGCCPMCARGEGEPCGGGGAGRGYCAPGMECVKSRKRRKGKAGAAAGGPGVSGVCVCKSRYPVCGSDGTTYPSGCQLRAASQRAESRGEKAITQVSKGTCEQGPSIVTPPKDIWNVTGAQVYLSCEVIGIPTPVLIWNKVKRGHYGVQRTELLPGDRDNLAIQTRGGPEKHEVTGWVLVSPLSKEDAGEYECHASNSQGQASASAKITVVDALHEIPVKKGEGAEL
modifications: fluorescent dye RED-tris-NTA 2nd Generation (Monolith His-Tag Labeling kit)
